According to publication PMC11717359, “A new pipeline SPICE identifies novel JUN-IKZF1 composite elements”:

Target: IKZF1 (Ikaros), recombinant (Homo sapiens, UniProt Q13422 1-519)
Assay: EMSA; 1 ug IKZF1 alone; EMSA per LI-COR kit protocol (829-07910), 100 nM IR700 probe, 4-12% TBE gel in 0.5x TBE; binding buffer, pH and temperature not stated
Details: protein: commercial; chain copies: 2; label: IRDye 700

Chain of IKZF1 (Ikaros), recombinant (Q13422 whole entry): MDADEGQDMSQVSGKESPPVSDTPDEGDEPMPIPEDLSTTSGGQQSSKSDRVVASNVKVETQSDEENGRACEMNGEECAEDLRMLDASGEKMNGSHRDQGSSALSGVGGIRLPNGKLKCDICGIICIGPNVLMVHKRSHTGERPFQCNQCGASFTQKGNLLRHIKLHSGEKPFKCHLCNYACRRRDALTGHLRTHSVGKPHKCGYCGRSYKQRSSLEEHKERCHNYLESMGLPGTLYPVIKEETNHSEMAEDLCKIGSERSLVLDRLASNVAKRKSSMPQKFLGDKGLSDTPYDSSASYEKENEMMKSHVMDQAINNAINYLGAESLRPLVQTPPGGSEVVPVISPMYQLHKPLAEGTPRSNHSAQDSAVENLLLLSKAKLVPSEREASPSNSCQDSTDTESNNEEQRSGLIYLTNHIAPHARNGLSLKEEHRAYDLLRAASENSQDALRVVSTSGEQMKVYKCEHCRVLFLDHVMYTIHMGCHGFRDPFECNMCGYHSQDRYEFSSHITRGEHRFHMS

B1: IL10 CNS9 WT probe (dsDNA)
DNA 1: GAGGTTGCAGTTTCGTTGTGAGTCAGGCCTGCTGA
DNA 2: TCAGCAGGCCTGACTCACAACGAAACTGCAACCTC
binding result: no binding
